Laboratory results reported in the supplement of paper PMC10065799, “High-throughput profiling of sequence recognition by tyrosine kinases and SH2 domains using bacterial peptide display” (eLife, 2023).

Assays:
c-Src = test: phosphorylation enrichment, bacterial display (enrichment ratio); higher = better substrate or ligand; peptides without Tyr show the background
Fer (mouse) = test: as above
EPHB1 = EPHB1 (UniProt P54762); test: as above
Fyn = Fyn (UniProt P06241); test: as above
AncSZ = test: as above
Hck = Hck (UniProt P08631); test: as above
MERTK = MERTK (UniProt Q12866); test: as above
EPHB2 = EPHB2 (UniProt P29323); test: as above
c-Abl (mouse) = test: as above
Jak2 = Jak2 (UniProt O60674); test: as above
FGFR3 = FGFR3 (UniProt P22607); test: as above
FGFR1 = FGFR1 (UniProt P11362); test: as above
Fes = Fes (UniProt P07332); test: as above
SHP2-C SH2 = test: SH2 binding enrichment of the phosphorylated peptide, bacterial display (enrichment ratio); higher = better substrate or ligand; peptides without Tyr show the background
Grb2 SH2 = Grb2 SH2 (UniProt P62993); test: as above
c-Src SH2 = test: as above
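Throughout, for SH2 binding enrichment of the phosphorylated peptide, bacterial display: peptide library displayed on the E. coli surface as eCPX fusions, selected cells deep-sequenced, score is each peptide's frequency after selection divided by its frequency in the input.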
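Throughout, for phosphorylation enrichment, bacterial display: 11-residue human phosphosite peptides and single-mutation variants displayed on the E. coli surface, counted by deep sequencing, each peptide's frequency after selection divided by its frequency in the unselected input library; frequency after pTyr selection over input frequency; kinase dosed for 20-30% of maximal phosphorylation in three min.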

Sequence of Fes (P07332 whole entry, looked up): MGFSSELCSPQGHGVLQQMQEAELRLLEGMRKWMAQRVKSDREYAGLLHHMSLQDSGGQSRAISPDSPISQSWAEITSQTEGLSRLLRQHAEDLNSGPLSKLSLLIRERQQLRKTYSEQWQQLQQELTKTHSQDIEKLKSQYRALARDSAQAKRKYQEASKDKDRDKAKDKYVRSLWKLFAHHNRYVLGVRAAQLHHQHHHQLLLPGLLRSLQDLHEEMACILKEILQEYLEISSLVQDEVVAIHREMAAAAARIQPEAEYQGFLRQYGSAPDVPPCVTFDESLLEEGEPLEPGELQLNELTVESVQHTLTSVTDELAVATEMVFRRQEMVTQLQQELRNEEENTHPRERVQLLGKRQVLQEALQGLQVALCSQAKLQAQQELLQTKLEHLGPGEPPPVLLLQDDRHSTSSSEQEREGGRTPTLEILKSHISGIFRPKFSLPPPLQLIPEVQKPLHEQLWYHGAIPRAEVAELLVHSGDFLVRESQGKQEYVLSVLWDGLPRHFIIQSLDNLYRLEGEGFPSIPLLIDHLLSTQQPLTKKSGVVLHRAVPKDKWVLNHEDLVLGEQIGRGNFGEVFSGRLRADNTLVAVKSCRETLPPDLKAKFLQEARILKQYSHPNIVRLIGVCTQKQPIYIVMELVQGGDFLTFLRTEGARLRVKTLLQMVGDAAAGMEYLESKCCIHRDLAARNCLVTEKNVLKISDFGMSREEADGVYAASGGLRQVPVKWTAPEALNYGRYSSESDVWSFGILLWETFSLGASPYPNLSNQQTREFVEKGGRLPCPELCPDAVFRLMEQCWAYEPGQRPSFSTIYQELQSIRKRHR
Sequence of FGFR1 (P11362 whole entry, looked up): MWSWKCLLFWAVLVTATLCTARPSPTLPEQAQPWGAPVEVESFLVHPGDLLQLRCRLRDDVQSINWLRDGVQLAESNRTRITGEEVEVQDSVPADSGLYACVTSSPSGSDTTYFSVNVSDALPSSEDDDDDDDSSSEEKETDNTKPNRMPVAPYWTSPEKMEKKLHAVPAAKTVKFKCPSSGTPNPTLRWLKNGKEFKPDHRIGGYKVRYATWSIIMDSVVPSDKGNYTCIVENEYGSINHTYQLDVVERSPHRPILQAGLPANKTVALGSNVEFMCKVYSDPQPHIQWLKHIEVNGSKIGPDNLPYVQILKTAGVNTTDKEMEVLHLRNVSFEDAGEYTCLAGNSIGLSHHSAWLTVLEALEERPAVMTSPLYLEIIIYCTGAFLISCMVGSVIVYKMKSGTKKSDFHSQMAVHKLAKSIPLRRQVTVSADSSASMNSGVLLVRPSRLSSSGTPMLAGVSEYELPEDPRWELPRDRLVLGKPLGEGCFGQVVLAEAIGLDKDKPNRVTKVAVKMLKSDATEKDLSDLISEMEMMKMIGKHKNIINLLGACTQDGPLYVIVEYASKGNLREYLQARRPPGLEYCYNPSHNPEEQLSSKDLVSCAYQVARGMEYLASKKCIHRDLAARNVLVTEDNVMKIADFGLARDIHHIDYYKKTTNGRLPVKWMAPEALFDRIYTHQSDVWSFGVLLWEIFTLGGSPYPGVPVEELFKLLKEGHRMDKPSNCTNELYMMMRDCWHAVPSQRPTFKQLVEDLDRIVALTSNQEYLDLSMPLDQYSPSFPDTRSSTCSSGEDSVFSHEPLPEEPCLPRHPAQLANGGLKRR
Sequence of Fyn (P06241 whole entry, looked up): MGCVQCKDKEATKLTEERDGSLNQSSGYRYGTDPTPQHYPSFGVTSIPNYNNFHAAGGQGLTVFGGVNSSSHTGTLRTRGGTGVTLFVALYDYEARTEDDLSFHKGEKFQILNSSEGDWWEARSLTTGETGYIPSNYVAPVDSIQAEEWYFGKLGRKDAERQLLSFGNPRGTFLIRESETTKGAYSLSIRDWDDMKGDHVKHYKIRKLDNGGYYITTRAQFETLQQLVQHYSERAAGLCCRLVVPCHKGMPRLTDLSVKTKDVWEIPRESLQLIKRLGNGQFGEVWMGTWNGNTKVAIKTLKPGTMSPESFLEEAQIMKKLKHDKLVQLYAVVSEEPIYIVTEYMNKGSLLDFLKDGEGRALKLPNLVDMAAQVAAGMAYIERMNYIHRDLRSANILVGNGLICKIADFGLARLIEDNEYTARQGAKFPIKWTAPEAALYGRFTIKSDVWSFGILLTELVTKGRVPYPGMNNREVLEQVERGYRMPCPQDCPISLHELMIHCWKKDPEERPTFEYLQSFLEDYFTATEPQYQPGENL
Sequence of FGFR3 (P22607 whole entry, looked up): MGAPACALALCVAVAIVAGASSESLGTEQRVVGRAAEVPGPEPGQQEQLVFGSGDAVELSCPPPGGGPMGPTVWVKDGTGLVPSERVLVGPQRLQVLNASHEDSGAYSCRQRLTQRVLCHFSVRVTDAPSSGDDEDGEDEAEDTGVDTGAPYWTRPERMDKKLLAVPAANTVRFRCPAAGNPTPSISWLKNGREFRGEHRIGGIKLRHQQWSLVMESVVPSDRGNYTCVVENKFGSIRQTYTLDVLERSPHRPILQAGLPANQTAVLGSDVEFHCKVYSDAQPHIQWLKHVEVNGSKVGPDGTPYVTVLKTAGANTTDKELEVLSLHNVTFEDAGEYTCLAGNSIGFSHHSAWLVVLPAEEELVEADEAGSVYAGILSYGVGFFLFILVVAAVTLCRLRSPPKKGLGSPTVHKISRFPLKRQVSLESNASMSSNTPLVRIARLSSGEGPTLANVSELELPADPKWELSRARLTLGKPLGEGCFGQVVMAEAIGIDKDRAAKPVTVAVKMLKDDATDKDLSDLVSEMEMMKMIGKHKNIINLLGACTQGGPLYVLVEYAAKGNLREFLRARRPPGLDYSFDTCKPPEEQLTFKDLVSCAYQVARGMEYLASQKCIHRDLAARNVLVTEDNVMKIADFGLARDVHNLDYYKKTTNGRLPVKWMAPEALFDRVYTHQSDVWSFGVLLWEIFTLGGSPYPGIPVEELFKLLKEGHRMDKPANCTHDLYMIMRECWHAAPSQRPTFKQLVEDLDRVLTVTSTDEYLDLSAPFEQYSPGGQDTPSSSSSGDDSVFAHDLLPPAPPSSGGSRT
Sequence of Hck (P08631 whole entry, looked up): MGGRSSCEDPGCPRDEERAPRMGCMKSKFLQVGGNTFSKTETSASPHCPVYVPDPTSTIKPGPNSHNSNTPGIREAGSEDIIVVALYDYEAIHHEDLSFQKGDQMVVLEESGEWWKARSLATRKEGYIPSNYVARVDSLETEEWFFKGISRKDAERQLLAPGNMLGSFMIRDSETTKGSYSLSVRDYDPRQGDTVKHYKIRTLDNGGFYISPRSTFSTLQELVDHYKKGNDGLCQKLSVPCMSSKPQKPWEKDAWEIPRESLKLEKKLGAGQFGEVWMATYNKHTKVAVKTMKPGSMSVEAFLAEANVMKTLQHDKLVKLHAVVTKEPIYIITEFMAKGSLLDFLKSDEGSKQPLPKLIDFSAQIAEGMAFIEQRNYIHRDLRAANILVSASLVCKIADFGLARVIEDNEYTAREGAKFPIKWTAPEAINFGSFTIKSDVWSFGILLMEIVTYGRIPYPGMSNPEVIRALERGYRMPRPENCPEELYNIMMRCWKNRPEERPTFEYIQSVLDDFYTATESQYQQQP
Sequence of MERTK (Q12866 whole entry, looked up): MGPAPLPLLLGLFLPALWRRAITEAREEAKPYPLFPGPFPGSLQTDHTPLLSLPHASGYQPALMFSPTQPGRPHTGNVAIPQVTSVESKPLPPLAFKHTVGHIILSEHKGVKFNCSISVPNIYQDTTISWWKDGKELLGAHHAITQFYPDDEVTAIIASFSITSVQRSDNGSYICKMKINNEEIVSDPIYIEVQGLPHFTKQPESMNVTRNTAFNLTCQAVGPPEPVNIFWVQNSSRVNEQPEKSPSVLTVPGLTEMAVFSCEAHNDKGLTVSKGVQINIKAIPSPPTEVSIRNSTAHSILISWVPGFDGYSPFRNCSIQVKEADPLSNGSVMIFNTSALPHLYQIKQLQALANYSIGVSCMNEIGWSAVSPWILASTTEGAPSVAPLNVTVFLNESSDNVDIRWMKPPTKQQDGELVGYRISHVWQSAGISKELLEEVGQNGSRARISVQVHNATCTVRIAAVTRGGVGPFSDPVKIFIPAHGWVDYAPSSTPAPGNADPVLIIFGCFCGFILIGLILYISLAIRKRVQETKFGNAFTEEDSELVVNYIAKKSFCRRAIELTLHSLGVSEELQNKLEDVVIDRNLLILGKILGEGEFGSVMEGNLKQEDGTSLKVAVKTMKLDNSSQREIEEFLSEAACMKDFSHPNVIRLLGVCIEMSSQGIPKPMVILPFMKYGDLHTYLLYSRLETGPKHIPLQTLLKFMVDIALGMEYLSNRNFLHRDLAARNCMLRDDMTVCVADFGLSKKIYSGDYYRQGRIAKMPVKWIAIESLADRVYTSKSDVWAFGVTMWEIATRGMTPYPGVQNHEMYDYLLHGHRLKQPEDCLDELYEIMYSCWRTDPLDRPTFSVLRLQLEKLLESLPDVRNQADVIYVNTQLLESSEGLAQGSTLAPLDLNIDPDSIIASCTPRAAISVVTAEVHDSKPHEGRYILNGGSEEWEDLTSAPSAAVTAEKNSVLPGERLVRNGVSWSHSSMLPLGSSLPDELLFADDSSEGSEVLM

SH2 binding enrichment (SHP2-C SH2) | SH2 binding enrichment (Grb2 SH2) | SH2 binding enrichment (c-Src SH2) | Sequence | phosphorylation enrichment (c-Src) | phosphorylation enrichment (Fer (mouse)) | phosphorylation enrichment (EPHB1) | phosphorylation enrichment (Fyn) | phosphorylation enrichment (AncSZ) | phosphorylation enrichment (Hck) | phosphorylation enrichment (MERTK) | phosphorylation enrichment (EPHB2) | phosphorylation enrichment (c-Abl (mouse)) | phosphorylation enrichment (Jak2) | phosphorylation enrichment (FGFR3) | phosphorylation enrichment (FGFR1) | phosphorylation enrichment (Fes)
0.799 | 0.663 | 0.493 | RLLVVYRWTQR [HBB_Y36_P37R] | 0.402 | 0.711 | 0.372 | 0.639 | 1.56 | 0.567 | 0.463 | 0.787 | 0.601 | 0.926 | 0.761 | 0.652 | 1.25
0.801 | 1.11 | 0.735 | RLNWIYYKDQT [RS1_Y165] | 0.616 | 0.844 | 0.985 | 0.687 | 1.53 | 0.947 | 0.672 | 0.712 | 0.676 | 1.78 | 0.98 | 0.643 | 2.66
0.526 | 0.894 | 0.387 | RLSVDYSKKSK [TUBA3E_Y161] | 0.36 | 0.35 | 1.09 | 0.247 | 0.515 | 0.442 | 0.461 | 0.389 | 0.433 | 0.408 | 0.34 | 0.373 | 0.553
0.515 | 0.933 | 0.478 | RPFFLYVAFHN [SGSH_Y174_D179N] | 0.33 | 0.405 | 0.74 | 0.321 | 1.04 | 0.327 | 0.453 | 0.491 | 0.472 | 0.762 | 0.837 | 0.564 | 0.918
0.81 | 0.834 | 0.479 | RPFSPYIIRGM [LRP5_Y1531_R1529S_YF] | 0.886 | 0.494 | 0.752 | 0.98 | 1.29 | 0.719 | 0.494 | 0.535 | 0.595 | 0.92 | 0.71 | 0.785 | 0.991
0.842 | 0.821 | 0.561 | RQQEDYLLYKQ [RARRES1_Y159] | 0.941 | 1.1 | 0.793 | 0.547 | 1.32 | 0.969 | 0.631 | 0.823 | 1.39 | 2.46 | 0.86 | 0.743 | 1.65
1.4 | 1 | 0.752 | RQSTLYSFFPT [MSH6_Y8_K13T] | 7.3 | 14.2 | 16.1 | 7.89 | 1.35 | 9.63 | 16.8 | 21.2 | 3.62 | 0.824 | 7.04 | 9.72 | 1.26
0.607 | 0.853 | 0.956 | RRGTGYTLPLP [MAGEC3_Y152_S155P] | 0.831 | 0.424 | 0.977 | 0.642 | 0.971 | 0.607 | 0.838 | 0.387 | 0.683 | 1.01 | 0.522 | 0.651 | 0.696
0.556 | 0.916 | 0.486 | RSSKMYPKTRS [LPL_Y329_L330P] | 0.614 | 0.342 | 0.359 | 0.502 | 0.601 | 0.509 | 0.562 | 0.151 | 1.2 | 1.43 | 0.624 | 0.547 | 0.675
0.567 | 0.826 | 0.448 | RTLSEYARRHV [RERE_Y1259_P1262R] | 0.446 | 0.404 | 0.353 | 0.338 | 0.613 | 0.461 | 0.572 | 0.373 | 2.14 | 0.596 | 0.494 | 0.393 | 0.629
0.797 | 0.902 | 0.638 | RVGVDYEGRGC [PLOD1_Y675_G678R] | 0.424 | 0.51 | 0.69 | 0.542 | 1.01 | 0.528 | 0.59 | 0.464 | 0.575 | 0.616 | 0.709 | 0.617 | 1.02
1.02 | 0.884 | 0.68 | SAAAIYMVRHP [PMP22_Y117_T118M] | 5.44 | 0.53 | 2.45 | 4.97 | 0.756 | 7.71 | 3.25 | 1.82 | 1.65 | 0.587 | 0.519 | 0.425 | 0.77
0.593 | 0.766 | 0.437 | SARFRYLLAEK [LDHB_Y173_M175L] | 0.515 | 0.452 | 0.35 | 0.514 | 0.724 | 0.508 | 0.498 | 0.477 | 0.783 | 0.641 | 0.55 | 0.439 | 0.697
0.451 | 0.622 | 0.424 | SASRSYSRSRS [SRRM4_Y549] | 0.588 | 0.505 | 0.466 | 0.518 | 0.635 | 0.503 | 0.589 | 0.521 | 0.659 | 0.58 | 0.497 | 0.426 | 0.594
0.721 | 1.18 | 0.866 | SCRSKYVGLWG [KCNQ1_Y184_G179S] | 0.509 | 0.465 | 0.39 | 0.419 | 0.665 | 0.423 | 0.451 | 0.497 | 0.541 | 0.574 | 0.456 | 0.364 | 0.984
0.745 | 0.853 | 0.68 | SDGGCYEQLFV [MC4R_Y41] | 1.76 | 9.7 | 0.764 | 1.32 | 1.69 | 2.14 | 0.806 | 0.74 | 0.871 | 0.991 | 0.837 | 0.663 | 1.09
0.74 | 0.794 | 0.554 | SDVCMYRKNIF [SYNE2_Y570_YF] | 0.436 | 0.354 | 0.536 | 0.371 | 0.906 | 0.355 | 0.448 | 0.479 | 0.793 | 0.931 | 0.712 | 0.48 | 1.12
0.584 | 0.783 | 0.486 | SFCFRYRCAPR [SUMF1_Y344_A348P_YF] | 0.701 | 0.726 | 0.527 | 0.605 | 0.883 | 0.633 | 0.73 | 0.549 | 0.75 | 0.811 | 0.587 | 0.509 | 0.69
0.655 | 0.828 | 0.466 | SFPSTYRFERG [INPPL1_Y661_P659S_YF] | 0.569 | 0.427 | 0.345 | 0.39 | 0.538 | 0.479 | 0.392 | 0.394 | 0.644 | 0.724 | 0.538 | 0.411 | 0.652
0.891 | 1.12 | 0.77 | SGRPGYCLGTR [SCO1_Y60] | 0.41 | 0.407 | 0.488 | 0.474 | 0.735 | 0.426 | 0.462 | 0.51 | 0.618 | 0.58 | 0.563 | 0.406 | 0.874

More lines, now with the values behind:

Sequence | SH2 binding enrichment (SHP2-C SH2) | SH2 binding enrichment (Grb2 SH2) | SH2 binding enrichment (c-Src SH2) | phosphorylation enrichment (c-Src) | phosphorylation enrichment (Fer (mouse)) | phosphorylation enrichment (EPHB1) | phosphorylation enrichment (Fyn) | phosphorylation enrichment (AncSZ) | phosphorylation enrichment (Hck) | phosphorylation enrichment (MERTK) | phosphorylation enrichment (EPHB2) | phosphorylation enrichment (c-Abl (mouse)) | phosphorylation enrichment (Jak2) | phosphorylation enrichment (FGFR3) | phosphorylation enrichment (FGFR1) | phosphorylation enrichment (Fes)
RLPSGYGLAYR [DLK1_Y262] | 0.954 | 0.855 | 0.844 | 0.39 | 0.418 | 0.464 | 0.295 | 0.627 | 0.555 | 0.385 | 0.315 | 0.414 | 0.46 | 0.479 | 1.32 | 0.61
RPIEVYLCPEE [E2F3_Y349_G344R] | 0.809 | 0.918 | 0.559 | 2.55 | 0.938 | 1.49 | 1.06 | 3.41 | 1.04 | 0.975 | 0.998 | 1.97 | 3.12 | 1.3 | 1.11 | 3.24
RREQDYTNLPS [CSF1R_Y923_R921Q] | 0.821 | 0.926 | 0.759 | 0.446 | 0.532 | 0.573 | 0.446 | 0.805 | 0.492 | 0.466 | 0.468 | 0.691 | 0.449 | 0.951 | 1.01 | 1.75
RSRQIYDAFIM [GRK3_Y109_YF] | 0.592 | 0.66 | 0.64 | 6.12 | 9.57 | 2.49 | 8.83 | 0.51 | 6.86 | 7.46 | 2.6 | 9.12 | 0.359 | 0.7 | 0.339 | 0.48
RSSGGYEPRGC [FUS_Y239_R244C] | 0.872 | 0.913 | 0.509 | 0.376 | 0.277 | 0.227 | 0.351 | 0.439 | 0.258 | 0.261 | 0.274 | 0.539 | 0.499 | 0.538 | 0.371 | 0.533
RSSNTYTLTDV [ALCAM_Y298] | 0.689 | 0.82 | 1.19 | 1.58 | 1.04 | 0.544 | 1.6 | 0.766 | 0.951 | 0.766 | 0.561 | 0.669 | 0.805 | 0.705 | 0.519 | 0.921
RTLIRYANLSN [BEST1_Y131_G135S] | 8.49 | 6.11 | 1.59 | 0.65 | 0.566 | 0.733 | 0.79 | 0.774 | 0.675 | 0.631 | 0.71 | 0.654 | 0.792 | 0.757 | 0.801 | 1.02
RVLHNYLVWCV [ECEL1_Y400_R404C] | 0.901 | 0.921 | 0.643 | 0.561 | 0.647 | 1.02 | 0.535 | 1.25 | 0.611 | 0.631 | 0.752 | 0.933 | 1.42 | 1.02 | 0.773 | 1.5
RWGQKHMTAVV [CYBA_Y72_Y72H] | 1.66 | 1.68 | 1.6 | 0.496 | 0.692 | 0.516 | 0.699 | 1.13 | 0.5 | 0.587 | 0.559 | 0.81 | 2.7 | 0.74 | 0.483 | 1.39
RWQQLYDTLNA [EIF3M_Y351_Q346R] | 0.695 | 0.827 | 0.338 | 3.71 | 3.35 | 1.95 | 5.67 | 1.32 | 7.68 | 6.56 | 2.02 | 0.788 | 2.43 | 0.848 | 0.574 | 1.45
RYLKDYGEFEV [GINS1_Y156_C152Y] | 1.37 | 0.972 | 0.593 | 1.69 | 1 | 1.16 | 1.54 | 1.75 | 1 | 0.792 | 0.839 | 0.771 | 1.2 | 1.36 | 1.16 | 1.6
SEDSEYFKAFE [CASQ2_Y178_YF] | 0.709 | 0.868 | 0.544 | 0.651 | 0.471 | 0.714 | 0.572 | 1.46 | 0.582 | 0.557 | 0.653 | 0.974 | 1.34 | 0.882 | 0.608 | 1.41
SGASGYSATST [CERT1_Y143] | 0.578 | 0.704 | 0.486 | 0.417 | 0.448 | 0.391 | 0.491 | 0.594 | 0.478 | 0.44 | 0.514 | 0.468 | 0.539 | 0.446 | 0.478 | 0.594
